From US20150093336A1 (VIB VZW, published 2015)
Changes are numbered by the printed parent chain.

T1: Recombinant mouse MMR (R&D systems) (mouse, UniProt Q61830 20-1388)
T1 construct: Antigen of the PE-ELISA and the SPR; also called mMMR; recombinant mMMR
T1 sequence: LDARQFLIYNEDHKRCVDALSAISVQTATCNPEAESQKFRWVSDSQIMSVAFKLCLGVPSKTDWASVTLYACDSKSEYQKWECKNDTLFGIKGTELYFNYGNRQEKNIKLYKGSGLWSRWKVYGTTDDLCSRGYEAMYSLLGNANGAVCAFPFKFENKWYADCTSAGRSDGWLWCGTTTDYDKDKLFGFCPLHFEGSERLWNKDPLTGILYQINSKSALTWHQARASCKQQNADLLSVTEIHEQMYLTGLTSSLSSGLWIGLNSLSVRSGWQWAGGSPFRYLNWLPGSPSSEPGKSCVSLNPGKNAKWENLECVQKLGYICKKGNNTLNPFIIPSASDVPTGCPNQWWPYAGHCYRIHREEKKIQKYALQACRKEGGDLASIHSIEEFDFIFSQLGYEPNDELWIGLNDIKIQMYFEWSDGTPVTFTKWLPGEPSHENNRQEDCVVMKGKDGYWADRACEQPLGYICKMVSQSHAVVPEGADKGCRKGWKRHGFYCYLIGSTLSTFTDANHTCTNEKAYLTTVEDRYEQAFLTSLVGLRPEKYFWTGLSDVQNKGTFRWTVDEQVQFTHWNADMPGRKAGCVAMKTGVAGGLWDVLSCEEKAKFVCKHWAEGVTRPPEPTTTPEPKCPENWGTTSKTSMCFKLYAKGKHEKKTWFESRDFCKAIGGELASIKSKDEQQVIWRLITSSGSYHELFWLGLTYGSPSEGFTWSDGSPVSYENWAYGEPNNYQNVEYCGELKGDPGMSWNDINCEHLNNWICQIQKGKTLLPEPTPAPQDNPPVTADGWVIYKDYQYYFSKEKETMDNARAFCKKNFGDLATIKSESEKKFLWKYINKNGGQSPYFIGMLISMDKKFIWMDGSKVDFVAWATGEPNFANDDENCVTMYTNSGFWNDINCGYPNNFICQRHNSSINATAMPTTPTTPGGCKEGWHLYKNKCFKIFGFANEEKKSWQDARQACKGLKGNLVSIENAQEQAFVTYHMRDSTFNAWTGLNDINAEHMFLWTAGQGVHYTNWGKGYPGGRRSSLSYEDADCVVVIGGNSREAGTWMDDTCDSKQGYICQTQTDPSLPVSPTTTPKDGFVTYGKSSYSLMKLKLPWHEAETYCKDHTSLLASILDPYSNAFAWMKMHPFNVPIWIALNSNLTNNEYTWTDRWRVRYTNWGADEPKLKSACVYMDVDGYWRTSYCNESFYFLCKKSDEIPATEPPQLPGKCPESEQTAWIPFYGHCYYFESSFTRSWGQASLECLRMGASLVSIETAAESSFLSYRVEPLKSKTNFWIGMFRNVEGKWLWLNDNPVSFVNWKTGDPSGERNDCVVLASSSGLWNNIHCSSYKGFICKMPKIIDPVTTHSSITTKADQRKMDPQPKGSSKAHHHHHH

T2: Recombinant human MMR (R&D systems) (human, UniProt P22897 19-1383)
T2 construct: Antigen of the PE-ELISA and the SPR; also called hMMR; recombinant hMMR
T2 sequence: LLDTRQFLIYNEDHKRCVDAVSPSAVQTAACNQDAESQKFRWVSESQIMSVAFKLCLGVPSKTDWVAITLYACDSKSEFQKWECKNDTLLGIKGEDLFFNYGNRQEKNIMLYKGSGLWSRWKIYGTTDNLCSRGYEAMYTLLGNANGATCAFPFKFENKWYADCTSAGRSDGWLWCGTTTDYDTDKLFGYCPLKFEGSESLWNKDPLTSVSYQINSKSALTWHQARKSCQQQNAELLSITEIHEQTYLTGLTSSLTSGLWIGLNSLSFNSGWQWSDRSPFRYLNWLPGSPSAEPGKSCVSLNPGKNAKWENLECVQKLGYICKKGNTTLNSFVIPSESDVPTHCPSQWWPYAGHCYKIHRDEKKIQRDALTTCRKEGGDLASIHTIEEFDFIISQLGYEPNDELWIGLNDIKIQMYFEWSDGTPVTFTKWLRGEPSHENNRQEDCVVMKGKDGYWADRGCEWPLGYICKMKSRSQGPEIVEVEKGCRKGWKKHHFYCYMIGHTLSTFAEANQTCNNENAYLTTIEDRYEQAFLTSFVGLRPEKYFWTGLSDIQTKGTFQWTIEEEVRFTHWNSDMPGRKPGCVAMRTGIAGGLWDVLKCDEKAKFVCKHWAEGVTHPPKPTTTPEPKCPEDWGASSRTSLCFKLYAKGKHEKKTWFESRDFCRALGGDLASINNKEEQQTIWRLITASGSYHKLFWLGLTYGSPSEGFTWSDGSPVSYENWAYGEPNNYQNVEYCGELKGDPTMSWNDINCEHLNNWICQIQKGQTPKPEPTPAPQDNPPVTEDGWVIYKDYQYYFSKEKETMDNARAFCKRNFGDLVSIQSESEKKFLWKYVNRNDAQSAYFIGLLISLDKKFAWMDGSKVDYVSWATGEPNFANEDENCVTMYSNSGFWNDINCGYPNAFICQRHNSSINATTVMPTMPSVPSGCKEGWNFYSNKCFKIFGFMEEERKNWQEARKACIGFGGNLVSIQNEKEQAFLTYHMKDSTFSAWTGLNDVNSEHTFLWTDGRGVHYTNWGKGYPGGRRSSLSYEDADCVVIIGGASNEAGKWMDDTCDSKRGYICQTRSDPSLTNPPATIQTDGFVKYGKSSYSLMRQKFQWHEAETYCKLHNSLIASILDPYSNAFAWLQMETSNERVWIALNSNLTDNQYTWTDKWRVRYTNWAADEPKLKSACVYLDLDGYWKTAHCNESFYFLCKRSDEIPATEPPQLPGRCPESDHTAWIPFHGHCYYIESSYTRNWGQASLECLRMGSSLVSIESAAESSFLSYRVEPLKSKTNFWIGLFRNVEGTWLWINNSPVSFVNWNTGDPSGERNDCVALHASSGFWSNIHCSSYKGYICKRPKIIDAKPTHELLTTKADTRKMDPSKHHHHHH

B1: NbhMMRm10.19 (VHH)
VHH: QVQLQESGGGLVQPGGSLKLSCAASGSIFSIKTMGWYRQAPGKQRELVAAITSGGSTNYADSVKGRFTISRDNAKNTVYLQMNSLKPEDTAVYYCNADGVVAWDQPYDNYWGQGTQVTVSS
notes: Produced from pMECS with C-terminal HA and 6xHis tag
B2: NbhmMMRm10.79 (VHH)
VHH: B1 VHH with I51V, T52S, T77A
notes: as for B1
B3: NbhmMMRm14.4 (VHH)
VHH: QVQLQESGGGLVQAGDSLRLSCAASGRTFSINYMGWYRQAPGKQRELVAAITSGSGSTNYADSVKGRFTISRDNAKNTMYLQMNSLKPEDTAVYYCNADMDSSLSGGYVDVWGQGTQVTVSS
notes: as for B1
B4: NbhmMMRm14.93 (VHH)
VHH: B3 VHH with N77K
notes: as for B1
B5: NbhmMMRm19.52 (VHH)
VHH: QVQLQESGGGLVQAGGSLRLSCLASGDTFSNYVMAWFRQAPGKEREIVAAIRLSGARYVPDSVKGRFTISRDNAKNAMYLQMTSLKPEDTARYYCAAGHTWGQYAYWGQGTQVTVSS
notes: as for B1
B6: NbhmMMRm20.52 (VHH)
VHH: QVQLQESGGGLVQAGGSLRLSCAASGRIFSAYAMGWFRQAPGKEREFVAAISRSGDSTDYADSVKGRFTISRDSAKNMVYLQMNSLKPEDTALYHCAARTVSAPPSAAWGYGYWGQGTQVTVSS
notes: as for B1
B7: NbhMMRm1.33 (VHH)
VHH: QVQLQESGGGLVQPGGSLRLSCAASGFTLDNYTVAWFRQAPGKEREGVSCISSSGGSTNYADSVKGRFTISRDNSKKSVYLQMNSLKPEDTAIYTCAAERAPPYYSGYYFFDSTCVAASYDYWGQGTQVTVSS
notes: Produced from pMECS in E. coli WK6 with C-terminal HA and 6xHis tag; also called NbMMRm1.33
B8: NbhMMRm2.15 (VHH)
VHH: QVQLQESGGGLVQPGESLRLSCKLSGFTLDYYDIGWFRQAPGKEREGVSCISSIGGSANYADSVKGRFTISRDNVKNTVYLQMNSLKPEDTAIYYCAAEAQTPYNDGDCTRASYDYWGQGIQVTVSS
notes: as for B1
B9: NbhMMRm11.5 (VHH)
VHH: QVQLQESGGGLVQPGGSLMLSCAASGNIFTINRMGWYRQAPGKQRELVAAITSGGNTNYADSVKGRFTISRDNAKNTVYLQMNSLKPEDTAVYYCNAAIVTMTSPYSDYWGQGTQVTVSS
notes: as for B1
B10: NbhMMRm12.6 (VHH)
VHH: QVQLQESGGGLVQPGGSLRLSCVVSGSFLSINHMGWYRQVSGEQRELVAAITSGGSTNYADSVKGRFTISRDSAKNTVYLQMNSLKPEDTAVYYCNADALTMLPPFDFWGQGTQVTVSS
notes: as for B1
B11: NbhMMRm16.95 (VHH)
VHH: QVQLQESGGGLVQPGGSLGLSCAASGRIASISAMGWYRQAPGKQRELVAAITGSGRTNYADSVKGRFTISRDNAKNTVYLQMNSLKPEDTAVYYCNLLMVDYGLGLGTDYWGQGTQVTVSS
notes: as for B1

These binders were tested against T1, Recombinant mouse MMR (R&D systems) (assay: SPR, BIAcore T100; mouse MMR on CM5 chip, sdAb as analyte).
Method: (§1) Affinity analysis was performed using a BIAcore™ T100 (GE Healthcare) with HEPES-buffered saline running buffer (10 mM HEPES with 0.15 M NaCl, 3.4 mM EDTA and 0.005% surfactant P20 at pH 7.4). MRR was immobilized on a CM5 chip in acetate buffer 50 mM (pH 5.0), resulting in 2100 RU MMR coated on the chip. A second channel on the same chip was activated/deactivated in a similar way and served as a negative control. The MMR sdAbs were used as analytes in eleven different concentrations, ranging from 1 to 2000 nM, at a flow rate of […]. Glycine-HCl 50 mM (pH 2.0) was used for elution. The kinetic and equilibrium parameters (kd, ka and KD) values were calculated from the combined sensogram of all concentrations using BIAcore™ T100 evaluation software 2.02 (GE Healthcare).
(§2) The binding characteristics and affinity of selected Nbs towards the recombinant hMMR and recombinant mMMR antigen was examined in further detail using surface plasmon resonance. A combined sensogram was recorded for each Nb (example for NbhmMMRm3.49 in FIG. 5) and the kinetic and equilibrium parameters (kd, ka and KD) values were calculated (Table 4 and Table 5). Most but not all results on binding to mouse or human rMMR obtained via this SPR analysis are in agreement with the results obtained by PE-ELISA.
B1 gave a Kd of 250 nM, a koff of 0.21 s⁻¹ and a kon of 840000 M⁻¹ s⁻¹. Binder B2 has a Kd of 39 nM, a koff of 0.0042 s⁻¹ and a kon of 110000 M⁻¹ s⁻¹. With B3 the Kd was 68 nM, the koff was 0.0023 s⁻¹ and the kon was 33000 M⁻¹ s⁻¹. In the case of B4, the Kd is reported as 74 nM, the koff is reported as 0.0021 s⁻¹ and the kon is reported as 29000 M⁻¹ s⁻¹. For B5, the Kd was 8500 nM, the koff was 0.032 s⁻¹ and the kon was 3700 M⁻¹ s⁻¹. Binder B6 has a Kd of 1.3 nM, a koff of 0.002 s⁻¹ and a kon of 1.6e+06 M⁻¹ s⁻¹. B7: no binding (tested: analyte 1 to 2000 nM). B8: no binding (tested: analyte 1 to 2000 nM). With B9 the Kd was 120 nM, the koff was 0.019 s⁻¹ and the kon was 150000 M⁻¹ s⁻¹. B10: no binding (tested: analyte 1 to 2000 nM). B11: no binding (tested: analyte 1 to 2000 nM).

The binders below were run against T2, Recombinant human MMR (R&D systems) (assay: SPR, BIAcore T100; human MMR on CM5 chip, sdAb as analyte).
Method: as §1, §2
Binder B1 has a Kd of 50 nM, a koff of 0.031 s⁻¹ and a kon of 750000 M⁻¹ s⁻¹. For B2, the Kd was 420 nM, the koff was 0.0066 s⁻¹ and the kon was 16000 M⁻¹ s⁻¹. For B3, the Kd was 10 nM, the koff was 0.0014 s⁻¹ and the kon was 140000 M⁻¹ s⁻¹. Binder B4 has a Kd of 13 nM, a koff of 0.0012 s⁻¹ and a kon of 95000 M⁻¹ s⁻¹. For B5, the Kd was 1700 nM, the koff was 0.01 s⁻¹ and the kon was 6000 M⁻¹ s⁻¹. With B6 the Kd was 260 nM, the koff was 0.13 s⁻¹ and the kon was 510000 M⁻¹ s⁻¹. B7 showed a Kd of 7.7 nM, a koff of 0.0015 s⁻¹ and a kon of 200000 M⁻¹ s⁻¹. In the case of B8, the Kd is reported as 8.6 nM, the koff is reported as 0.0013 s⁻¹ and the kon is reported as 150000 M⁻¹ s⁻¹. For B9, the Kd was 55 nM, the koff was 0.022 s⁻¹ and the kon was 400000 M⁻¹ s⁻¹. In the case of B10, the Kd is reported as 8.2 nM, the koff is reported as 0.0012 s⁻¹ and the kon is reported as 150000 M⁻¹ s⁻¹. Binder B11 has a Kd of 21 nM, a koff of 0.0014 s⁻¹ and a kon of 66000 M⁻¹ s⁻¹.
